Legend:
[1] = target: Flavonifractor plautii GalNAcDeacetylase (FpGalNAcDeAc), SEQ ID NO: 2, 4, 5 (Flavonifractor plautii, UniProt P0DTR4); conditions: 100 μM EDTA; 50 μM A antigen subtype 1penta-MU, pH 7.4, 37° C.
Experimental: FpGalNAcDeacetylase was tested against different potential inhibitors in 96-well plate format as a coupled assay. Reaction was performed in 100 μL scale at 37° C. with 50 μM A antigen subtype 1penta-MU and 5 μg/mL FpGalNAcDeacetylase in 100 mM NaH2PO4 PH 7.4 with 10 μg/mL FpGalactosaminidase, 50 μg/mL SpHex, 50 μg/mL AfcA, 50 μg/mL BgaC. As inhibitors EDTA (1, 10, 100 μM), Marimastat (1, 10, 100, 1000 μM), DMSO (2%, 4%), Protease Inhibitor Cocktail EDTA-free (Pierce™) (1×, 2× and 4×) were tested. The Fluorescence (365/435 nm) was monitored continuously for 1 hours using a Synergy H1™ plate reader (BioTek™).

[2] = target: T1, Flavonifractor plautii Galactosaminidase (FpGalNase), full length, SEQ ID NO: 7, 9, 10 (Flavonifractor plautii, UniProt P0DTR5); assay: Kinetic parameters of FpGalNase full length (MU or pNP release); type: biochemical; conditions: versus corresponding GalN-antigen
T1 sequence (P0DTR5 with tags, fused parts or gaps): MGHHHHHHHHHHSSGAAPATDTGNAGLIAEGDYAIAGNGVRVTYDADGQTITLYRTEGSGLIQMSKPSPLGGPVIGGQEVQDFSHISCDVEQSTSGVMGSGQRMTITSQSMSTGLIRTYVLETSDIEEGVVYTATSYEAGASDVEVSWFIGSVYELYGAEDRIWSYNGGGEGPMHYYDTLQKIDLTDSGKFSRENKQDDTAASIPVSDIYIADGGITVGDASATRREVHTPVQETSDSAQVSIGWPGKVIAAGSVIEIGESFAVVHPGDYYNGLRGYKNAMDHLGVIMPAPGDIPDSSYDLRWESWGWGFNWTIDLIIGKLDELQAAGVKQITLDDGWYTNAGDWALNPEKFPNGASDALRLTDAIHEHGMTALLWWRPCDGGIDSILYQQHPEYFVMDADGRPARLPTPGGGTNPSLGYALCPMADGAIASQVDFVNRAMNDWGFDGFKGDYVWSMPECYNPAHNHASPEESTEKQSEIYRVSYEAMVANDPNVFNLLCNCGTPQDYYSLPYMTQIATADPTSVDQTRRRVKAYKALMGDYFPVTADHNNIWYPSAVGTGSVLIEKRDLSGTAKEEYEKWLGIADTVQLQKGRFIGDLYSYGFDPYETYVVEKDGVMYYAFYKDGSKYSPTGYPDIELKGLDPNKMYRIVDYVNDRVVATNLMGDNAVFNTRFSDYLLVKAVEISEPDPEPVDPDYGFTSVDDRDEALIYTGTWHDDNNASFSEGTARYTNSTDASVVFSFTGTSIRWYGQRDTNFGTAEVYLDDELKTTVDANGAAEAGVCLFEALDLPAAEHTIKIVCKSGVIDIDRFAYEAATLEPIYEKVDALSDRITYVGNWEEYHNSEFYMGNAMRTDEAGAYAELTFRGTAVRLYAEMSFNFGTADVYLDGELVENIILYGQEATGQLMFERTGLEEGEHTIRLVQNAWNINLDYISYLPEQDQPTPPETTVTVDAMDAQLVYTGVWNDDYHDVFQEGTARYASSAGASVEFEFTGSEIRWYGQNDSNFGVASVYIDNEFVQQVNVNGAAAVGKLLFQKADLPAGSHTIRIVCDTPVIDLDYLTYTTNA
Experimental: (§1) All kinetic assays utilizing 4-methylumbelliferone as leaving group were performed through measurement of fluorescence. To avoid measurement errors based on the inner filter effect (Palmier 2007) standard curves were used to validate the linear range of the fluorophore.
(§2) Michaelis-Menten parameter was determined for GalN antigen subtype 1penta-MU and A antigen subtype 1penta-MU in 100 mM NaH2PO4, pH 7.4 at 37° C. Reaction was performed in 100 μl with 3.4 nM FpGalactosaminidase (5.31 nM FpGalNase_truncA) and 0.1 mg/mL SpHex, AfcA, 0.2 mg/mL BgaC and varying concentrations of substrate (5 μM-2 mM). The reactions were run as a series of four with controls (no FpGalactosaminidase) as duplicates. The fluorescence signal (365/435 nm) resulting from MU release by hydrolysis was monitored by Synergy H1™ plate reader [BioTek™] and converted to concentration using MU standard concentration curves determined under identical reaction conditions. Initial rates (μM/s) were determined and plotted in Grafit 7.0™ to determine the kinetic parameters.
kcat/KM parameter was determined for GalN antigen subtype 1/2/4tetra-MU and B antigen subtype 1tetra-MU at pH 7.4 and 37° C. […] Initial rates (μM/s) were determined and plotted in Grafit 7.0™ to determine the kcat/KM (s^−1*mM^−1) parameters. […]

[3] = substrate: CC(=O)N[C@H]1[C@H](O[C@H]2[C@@H](O)[C@@H](CO)O[C@@H](Oc3ccc4c(C)cc(=O)oc4c3)[C@@H]2O)O[C@H](CO)[C@@H](O)[C@@H]1O[C@@H]1O[C@H](CO)[C@H](O)[C@H](O[C@H]2O[C@H](CO)[C@H](O)[C@H](O)[C@H]2N)[C@H]1O[C@@H]1O[C@@H](C)[C@@H](O)[C@@H](O)[C@@H]1O; assay: as above; type: biochemical, Flavonifractor plautii; conditions: other: 100 mM NaH2PO4, pH 7.4, 37° C.
Experimental: as §1, §2
(§3) kcat/KM parameter was determined for GalN antigen subtype 1/2/4tetra-MU and B antigen subtype 1tetra-MU at pH 7.4 and 37° C. Reactions (total volume of 100 μL) were performed in black 96-plate wells and as coupled assays in 100 mM NaH2 PO4 (pH 7.4) with 8.63 nM FpGalactosaminidase, 0.1 mg/mL SpHex, BgaC (BgaA for Subtype 2), AfcA, varying concentrations of substrate (25 μM, 20 μM, 15 μM, 10 μM, 7.5 μM, 5 μM). The reactions were run as a series of four with controls (no FpGalactosaminidase) as duplicates. The fluorescence signal (365/435 nm) resulting from MU release by hydrolysis was monitored by Synergy H1™ plate reader [BioTek™] and converted to concentration using MU standard concentration curves determined under identical reaction conditions. Initial rates (μM/s) were determined and plotted in Grafit 7.0™ to determine the kcat/KM (s^−1*mM^−1) parameters.
(§4) Michaelis-Menten parameters were determined for GalN-α-pNP in clear 96-plate at 37° C. with 863.2 nM FpGalactosaminidase (in 100 mM NaH2PO4, pH 7.4) or 369.9 nM FpGH4 (in 50 mM Tris/HCl, pH 7.4, 100 μM NAD^+, 1 mM MnCl2) with varying concentrations of substrate (10 μM-5 mM) in a volume of 100 μl. The reactions were run as a series of three with two controls (no enzyme). The absorption (at 405 nm) resulting from pNP release by hydrolysis was monitored by Synergy H1™ plate reader [BioTek™] and converted to concentration using p-nitrophenol standard concentration curves determined under identical reaction conditions. Initial rates (μM/s) were determined and plotted in Grafit 7.0™ to determine the kinetic parameters.

[4] = substrate: CC(=O)N[C@H]1[C@H](Oc2ccc3c(C)cc(=O)oc3c2)O[C@H](CO)[C@@H](O)[C@@H]1O[C@@H]1O[C@H](CO)[C@H](O)[C@H](O[C@H]2O[C@H](CO)[C@H](O)[C@H](O)[C@H]2N)[C@H]1O[C@@H]1O[C@@H](C)[C@@H](O)[C@@H](O)[C@@H]1O; assay: as above; type: biochemical, Flavonifractor plautii; conditions: other: 100 mM NaH2PO4, pH 7.4, 37° C.
Experimental: as §1, §2, §3, §4

[5] = substrate: CC(=O)N[C@H]1[C@H](Oc2ccc3c(C)cc(=O)oc3c2)O[C@H](CO)[C@@H](O)[C@@H]1O[C@@H]1O[C@H](CO)[C@H](O)[C@H](O[C@H]2O[C@H](CO)[C@H](O)[C@H](O)[C@H]2O)[C@H]1O[C@@H]1O[C@@H](C)[C@@H](O)[C@@H](O)[C@@H]1O; assay: as above; type: biochemical, Flavonifractor plautii; conditions: other: 100 mM NaH2PO4, pH 7.4, 37° C.
Experimental: as §1, §2, §3, §4

[6] = substrate: CC(=O)N[C@H]1[C@H](Oc2ccc3c(C)cc(=O)oc3c2)O[C@H](CO)[C@@H](O[C@@H]2O[C@H](CO)[C@H](O)[C@H](O[C@H]3O[C@H](CO)[C@H](O)[C@H](O)[C@H]3N)[C@H]2O[C@@H]2O[C@@H](C)[C@@H](O)[C@@H](O)[C@@H]2O)[C@@H]1O; assay: as above; type: biochemical, Flavonifractor plautii; conditions: other: 100 mM NaH2PO4, pH 7.4, 37° C.
Experimental: as §1, §2, §3, §4

[7] = substrate: CC(=O)N[C@H]1[C@H](Oc2ccc3c(C)cc(=O)oc3c2)O[C@H](CO)[C@H](O)[C@@H]1O[C@@H]1O[C@H](CO)[C@H](O)[C@H](O[C@H]2O[C@H](CO)[C@H](O)[C@H](O)[C@H]2N)[C@H]1O[C@@H]1O[C@@H](C)[C@@H](O)[C@@H](O)[C@@H]1O; assay: as above; type: biochemical, Flavonifractor plautii; conditions: other: 100 mM NaH2PO4, pH 7.4, 37° C.
Experimental: as §1, §2, §3, §4

[8] = substrate: N[C@H]1[C@@H](Oc2ccc([N+](=O)[O-])cc2)O[C@H](CO)[C@H](O)[C@@H]1O; assay: as above; type: biochemical, Flavonifractor plautii; conditions: other: 100 mM NaH2PO4, pH 7.4, 37° C.
Experimental: as §1, §2, §3, §4

Sequence of Flavonifractor plautii GalNAcDeacetylase (FpGalNAcDeAc), SEQ ID NO: 2, 4, 5 (P0DTR4 13-772, looked up, natural form): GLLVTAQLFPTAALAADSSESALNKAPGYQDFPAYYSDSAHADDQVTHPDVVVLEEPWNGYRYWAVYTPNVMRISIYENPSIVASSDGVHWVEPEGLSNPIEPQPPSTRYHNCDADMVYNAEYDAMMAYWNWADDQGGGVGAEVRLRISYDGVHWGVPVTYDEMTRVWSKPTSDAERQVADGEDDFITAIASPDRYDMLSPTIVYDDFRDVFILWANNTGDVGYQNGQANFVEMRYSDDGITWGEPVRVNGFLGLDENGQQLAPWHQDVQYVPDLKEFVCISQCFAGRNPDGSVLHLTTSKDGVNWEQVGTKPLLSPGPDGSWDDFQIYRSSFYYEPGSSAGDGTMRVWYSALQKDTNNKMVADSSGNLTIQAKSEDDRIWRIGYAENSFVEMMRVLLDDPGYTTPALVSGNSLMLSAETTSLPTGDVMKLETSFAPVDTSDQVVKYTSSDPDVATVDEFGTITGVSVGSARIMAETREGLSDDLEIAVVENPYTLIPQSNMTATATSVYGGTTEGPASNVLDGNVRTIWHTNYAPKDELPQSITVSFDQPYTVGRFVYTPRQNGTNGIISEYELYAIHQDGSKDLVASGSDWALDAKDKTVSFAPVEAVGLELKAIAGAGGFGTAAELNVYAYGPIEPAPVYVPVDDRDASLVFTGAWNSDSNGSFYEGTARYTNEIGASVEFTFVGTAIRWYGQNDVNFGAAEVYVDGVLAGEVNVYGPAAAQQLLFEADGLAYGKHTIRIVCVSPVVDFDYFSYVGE

Which “effect of treatment on enzyme activity” value [1] does the source give for `O=C(O)CN(CCN(CC(=O)O)CC(=O)O)CC(=O)O` [EDTA] here?
The value was “largely obliterated the enzyme activity”.

How did the “kcat/KM for cleavage of B-antigen, times lower than for the corresponding GalN-antigen” value [2] turn out when `CC(=O)N[C@H]1[C@H](Oc2ccc3c(C)cc(=O)oc3c2)O[C@H](CO)[C@@H](O)[C@@H]1O[C@@H]1O[C@H](CO)[C@H](O)[C@H](O[C@H]2O[C@H](CO)[C@H](O)[C@H](O)[C@H]2O)[C@H]1O[C@@H]1O[C@@H](C)[C@@H](O)[C@@H](O)[C@@H]1O` [B antigen Type1tetra-MU] was run?
Its value is “over 2000 times lower”.

B1: Flavonifractor plautii Galactosaminidase (FpGalNase), full length, SEQ ID NO: 7, 9, 10 (Flavonifractor plautii) (protein)
chain: MGHHHHHHHHHHSSGAAPATDTGNAGLIAEGDYAIAGNGVRVTYDADGQTITLYRTEGSGLIQMSKPSPLGGPVIGGQEVQDFSHISCDVEQSTSGVMGSGQRMTITSQSMSTGLIRTYVLETSDIEEGVVYTATSYEAGASDVEVSWFIGSVYELYGAEDRIWSYNGGGEGPMHYYDTLQKIDLTDSGKFSRENKQDDTAASIPVSDIYIADGGITVGDASATRREVHTPVQETSDSAQVSIGWPGKVIAAGSVIEIGESFAVVHPGDYYNGLRGYKNAMDHLGVIMPAPGDIPDSSYDLRWESWGWGFNWTIDLIIGKLDELQAAGVKQITLDDGWYTNAGDWALNPEKFPNGASDALRLTDAIHEHGMTALLWWRPCDGGIDSILYQQHPEYFVMDADGRPARLPTPGGGTNPSLGYALCPMADGAIASQVDFVNRAMNDWGFDGFKGDYVWSMPECYNPAHNHASPEESTEKQSEIYRVSYEAMVANDPNVFNLLCNCGTPQDYYSLPYMTQIATADPTSVDQTRRRVKAYKALMGDYFPVTADHNNIWYPSAVGTGSVLIEKRDLSGTAKEEYEKWLGIADTVQLQKGRFIGDLYSYGFDPYETYVVEKDGVMYYAFYKDGSKYSPTGYPDIELKGLDPNKMYRIVDYVNDRVVATNLMGDNAVFNTRFSDYLLVKAVEISEPDPEPVDPDYGFTSVDDRDEALIYTGTWHDDNNASFSEGTARYTNSTDASVVFSFTGTSIRWYGQRDTNFGTAEVYLDDELKTTVDANGAAEAGVCLFEALDLPAAEHTIKIVCKSGVIDIDRFAYEAATLEPIYEKVDALSDRITYVGNWEEYHNSEFYMGNAMRTDEAGAYAELTFRGTAVRLYAEMSFNFGTADVYLDGELVENIILYGQEATGQLMFERTGLEEGEHTIRLVQNAWNINLDYISYLPEQDQPTPPETTVTVDAMDAQLVYTGVWNDDYHDVFQEGTARYASSAGASVEFEFTGSEIRWYGQNDSNFGVASVYIDNEFVQQVNVNGAAAVGKLLFQKADLPAGSHTIRIVCDTPVIDLDYLTYTTNA
B1 was tested. Which Km [3] did it give?
Its Km is 64.5 ± 7.6 µM.

What about the kcat [3] of the same molecule?
The kcat was 2.35 s⁻¹.

What about the kcat/Km [3] of the same molecule?
The kcat/Km was 36480 M⁻¹ s⁻¹.

And the kcat/Km [4]?
Its kcat/Km is 45700 ± 3570 M⁻¹ s⁻¹.

What about the kcat/Km [5] of the same molecule?
The kcat/Km was 20 M⁻¹ s⁻¹.

What about the kcat/Km [6] of the same molecule?
Its kcat/Km is 47270 ± 7490 M⁻¹ s⁻¹.

And the kcat/Km [7]?
The kcat/Km was 30050 ± 2330 M⁻¹ s⁻¹.

What about the Km [8] of the same molecule?
The Km was 700 ± 151 µM.

What about the kcat [8] of the same molecule?
Its kcat is 0.029 s⁻¹.

What about the kcat/Km [8] of the same molecule?
The kcat/Km was 40 M⁻¹ s⁻¹.

Reference: patent publication US20240294895A1, “ENZYMATIC COMPOSITIONS FOR CARBOHYDRATE ANTIGEN CLEAVAGE ON DONOR ORGANS, METHODS AND USES ASSOCIATED THEREWITH” (THE UNIVERSITY OF BRITISH COLUMBIA, priority 2018, published 2024)
